Assay results published in US20200123239A1 (PROTHENA BIOSCIENCES, published 2020).

T1: tau peptide fragment, residues 24-44 of SEQ ID NO: 1 (human)
T1 construct: Proteolytic fragment (trypsin digest) of rTau, precipitated with 16B5 and identified by MALDI-TOF/TOF
T1 peptide: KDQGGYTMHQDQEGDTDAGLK

T2: tau peptide fragment, residues 25-44 of SEQ ID NO: 1 (human)
T2 construct: Proteolytic fragment (LysC and trypsin digests) of rTau, precipitated with 16B5 and identified by MALDI-TOF/TOF
T2 peptide: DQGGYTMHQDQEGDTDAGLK


What was measured:
[1] = biological target: recombinant purified hTau-P301L (human) (UniProt P10636); experiment: SPR (Biacore T200), antibody captured on anti-human or anti-mouse antibody, hTau-P301L as analyte
Chain of recombinant purified hTau-P301L (human) (P10636 other isoform, or with tags, fused parts or gaps P301L P301L): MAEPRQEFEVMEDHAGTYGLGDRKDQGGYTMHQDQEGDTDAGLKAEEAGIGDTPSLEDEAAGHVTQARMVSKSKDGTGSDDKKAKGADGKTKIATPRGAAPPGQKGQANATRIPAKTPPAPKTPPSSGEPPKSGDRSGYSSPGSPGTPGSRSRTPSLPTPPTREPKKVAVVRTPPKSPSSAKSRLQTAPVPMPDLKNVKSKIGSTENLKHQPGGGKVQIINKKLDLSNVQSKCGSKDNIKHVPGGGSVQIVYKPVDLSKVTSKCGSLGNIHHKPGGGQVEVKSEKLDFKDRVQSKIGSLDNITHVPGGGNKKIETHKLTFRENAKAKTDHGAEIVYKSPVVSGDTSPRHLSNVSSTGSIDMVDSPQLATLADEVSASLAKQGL

[2] = biological target: T3, Δ5-24 deletion mutant of tau (rTau) (human, UniProt P10636-6 1-383); experiment: Western blot of bacterial lysate, stained with 16B5 at 0.2 ug/mL
T3 construct: Deletion mutagenesis of rTau; Tested as clarified bacterial lysate on Western blots; also called A5-24
T3 sequence (P10636 other isoform, or with tags, fused parts or gaps mutant): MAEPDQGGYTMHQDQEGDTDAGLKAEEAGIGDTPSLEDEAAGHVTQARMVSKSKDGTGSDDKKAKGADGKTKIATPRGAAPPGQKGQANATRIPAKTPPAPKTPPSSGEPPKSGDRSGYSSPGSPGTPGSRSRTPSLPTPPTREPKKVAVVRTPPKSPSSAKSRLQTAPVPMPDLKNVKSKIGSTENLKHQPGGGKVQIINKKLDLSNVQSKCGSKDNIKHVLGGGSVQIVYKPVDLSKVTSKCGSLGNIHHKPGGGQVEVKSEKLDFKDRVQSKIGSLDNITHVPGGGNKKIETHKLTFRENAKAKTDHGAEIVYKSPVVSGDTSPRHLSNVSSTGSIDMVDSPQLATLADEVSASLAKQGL
Description: (§1) To control for sample loading, Tau46, an antibody with specificity for the C-terminal region of tau (C-terminal epitope), was used to stain duplicate blots. Both antibodies were used at a concentration of 0.2 μg/mL. Images were captured using a Licor Odyssey fluorescent scanner. The following deletion mutants of tau were made and analyzed in this manner: Δ5-24, Δ23-32, Δ25-44, Δ30-39, and Δ37-46.

[3] = biological target: T4, human tau with 4 microtubule binding repeats and no N-terminal inserts, containing a P301L mutation (rTau) (human, UniProt P10636 2-758); experiment: as above
T4 construct: Expressed in E. coli and purified; also called full-length Tau; wild-type Tau (WT) on the blots
T4 sequence (P10636 other isoform, or with tags, fused parts or gaps P301L P301L limits assumed): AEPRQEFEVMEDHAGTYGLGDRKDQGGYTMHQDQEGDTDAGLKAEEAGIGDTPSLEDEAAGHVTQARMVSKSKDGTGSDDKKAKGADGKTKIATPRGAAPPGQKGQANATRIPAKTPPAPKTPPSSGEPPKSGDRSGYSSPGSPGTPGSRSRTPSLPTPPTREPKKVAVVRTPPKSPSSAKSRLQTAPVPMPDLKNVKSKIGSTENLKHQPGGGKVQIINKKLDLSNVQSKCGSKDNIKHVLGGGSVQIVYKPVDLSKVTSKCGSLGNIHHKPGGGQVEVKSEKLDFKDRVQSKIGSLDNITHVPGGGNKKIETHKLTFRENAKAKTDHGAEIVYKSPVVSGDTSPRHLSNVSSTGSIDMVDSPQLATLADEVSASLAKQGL
Description: as §1

[4] = biological target: T1, tau peptide fragment, residues 24-44 of …; experiment: precipitation of digest fragments with 16B5, HPLC, MALDI-TOF/TOF (trypsin digest)
Description: (§2) The human tau sequence with 4 microtubule binding repeats and no N-terminal inserts, and containing a P301L mutation (rTau), was expressed in E. coli and purified. […] Enzymatic digests of 200 ug of tau were carried out with one of four different proteases: trypsin (which cleaves at the carboxyl end of arginine and lysine), chymotrypsin (which primarily cleaves at the carboxyl end of tyrosine, tryptophan, phenylalanine and leucine), LysC (which cleaves at the carboxyl end of lysine), or GluC (which cleaves after glutamate residues and rarely after aspartate residues). All proteases were obtained from Thermo Scientific, and digests were performed for 16 h at 37° C. […] Precipitates were thoroughly washed in PBS containing 300 mM NaCl and 0.5% NP-40, then eluted with 1M NaCl in 100 mM glycine, pH 2.8. Eluates were dried under vacuum and resuspended in 0.1% trifluoroacetic acid (TFA). […] Peak fractions were collected, dried and resuspended in distilled water. Peptide masses and identities were determined by MALDI-TOF/TOF.

[5] = biological target: T2, tau peptide fragment, residues 25-44 of …; experiment: precipitation of digest fragments with 16B5, HPLC, MALDI-TOF/TOF (LysC and trypsin digests)
Description: as §2

[6] = biological target: T5, Δ23-32 deletion mutant of tau (rTau) (human, UniProt P10636 1-758); experiment: Western blot of bacterial lysates, 16B5 at 0.2 µg/mL
T5 construct: Deletion mutagenesis of rTau; Tested as clarified bacterial lysate on Western blots; also called A23-32
T5 sequence (P10636 other isoform, or with tags, fused parts or gaps mutant): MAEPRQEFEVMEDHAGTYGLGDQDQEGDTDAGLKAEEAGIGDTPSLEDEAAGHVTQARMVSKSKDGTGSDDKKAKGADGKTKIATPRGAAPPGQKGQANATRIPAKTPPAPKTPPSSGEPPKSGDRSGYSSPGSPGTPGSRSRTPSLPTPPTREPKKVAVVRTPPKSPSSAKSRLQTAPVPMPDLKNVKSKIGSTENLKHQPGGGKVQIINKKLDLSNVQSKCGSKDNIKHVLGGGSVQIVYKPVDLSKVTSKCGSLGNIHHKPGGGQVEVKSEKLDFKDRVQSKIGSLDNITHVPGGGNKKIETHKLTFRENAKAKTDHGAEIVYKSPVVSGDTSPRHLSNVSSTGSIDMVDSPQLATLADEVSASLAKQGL
Description: as §1

[7] = biological target: T6, Δ30-39 deletion mutant of tau (rTau) (human, UniProt P10636 1-758); experiment: Western blot of bacterial lysates
T6 construct: Deletion mutagenesis of rTau; Tested as clarified bacterial lysate on Western blots; also called A30-39
T6 sequence (P10636 other isoform, or with tags, fused parts or gaps mutant): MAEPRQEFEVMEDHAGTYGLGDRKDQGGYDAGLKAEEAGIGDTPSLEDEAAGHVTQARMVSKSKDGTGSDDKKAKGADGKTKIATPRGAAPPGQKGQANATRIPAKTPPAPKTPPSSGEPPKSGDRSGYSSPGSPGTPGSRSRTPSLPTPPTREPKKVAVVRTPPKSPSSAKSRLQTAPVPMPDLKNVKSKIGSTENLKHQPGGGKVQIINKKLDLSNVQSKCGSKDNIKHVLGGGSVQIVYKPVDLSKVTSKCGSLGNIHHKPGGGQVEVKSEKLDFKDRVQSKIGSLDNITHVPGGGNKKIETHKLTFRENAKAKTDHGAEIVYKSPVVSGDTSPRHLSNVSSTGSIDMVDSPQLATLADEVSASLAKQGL
Description: as §1

[8] = biological target: T7, Δ25-44 deletion mutant of tau (rTau) (human, UniProt P10636 1-758); experiment: Western blot of bacterial lysates
T7 construct: Deletion mutagenesis of rTau; Tested as clarified bacterial lysate on Western blots; also called A25-44
T7 sequence (P10636 other isoform, or with tags, fused parts or gaps mutant): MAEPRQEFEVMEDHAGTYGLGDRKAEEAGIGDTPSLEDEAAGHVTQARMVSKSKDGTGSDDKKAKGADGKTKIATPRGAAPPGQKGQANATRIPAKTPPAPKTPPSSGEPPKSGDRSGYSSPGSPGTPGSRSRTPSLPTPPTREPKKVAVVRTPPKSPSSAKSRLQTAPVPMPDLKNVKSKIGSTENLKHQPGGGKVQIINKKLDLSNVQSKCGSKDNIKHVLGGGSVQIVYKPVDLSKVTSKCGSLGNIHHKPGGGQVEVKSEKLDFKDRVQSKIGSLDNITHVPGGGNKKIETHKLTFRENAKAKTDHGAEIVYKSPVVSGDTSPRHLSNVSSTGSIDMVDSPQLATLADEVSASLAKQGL
Description: as §1

Row | Kd [1] [nM] | koff [1] [s⁻¹] | kon [1] [M⁻¹ s⁻¹] | binding result [2] | binding result [3] | binding result [4] | binding result [5] | binding result [6] | binding result [7] | binding result [8] | Binder
1 | 0.617 | 0.00215 | 3.5e+06 |  |  |  |  |  |  |  | humanized 16B5 antibody, version H1L1 (antibody, V domains shown) VH: QVQLVQSGSELKKPGASVKVSCKASGYTFTYHGMDWVRQAPGQGLEWMGWINTYSGVPTYADDFKGRFVFSLDTSVSTAYLQISSLKAEDTAVYFCARRRDFTMDFWGQGTTVTVSS VL: NIVLTQSPDSLAVSLGERATINCKSSQSLLNSRTRKNYLAWFQQKPGQPPKLLIYWASTRESGVPDRFSGSGSGTDFTLTISSLQAEDVAVYYCKQSYTLRTFGGGTKVEIKR
2 | 0.32 | 0.00398 | 1.25e+07 |  |  |  |  |  |  |  | humanized 16B5 antibody, version H1L3 (antibody, V domains shown) VH: QVQLVQSGSELKKPGASVKVSCKASGYTFTYHGMDWVRQAPGQGLEWMGWINTYSGVPTYADDFKGRFVFSLDTSVSTAYLQISSLKAEDTAVYFCARRRDFTMDFWGQGTTVTVSS VL: DIVLTQSPDSLAVSLGERATINCKSSQSLLNSRTRKNYLAWFQQKPGQSPKLLIYWASTRESGVPDRFSGSGSGTDFTLTISSLQAEDVAVYYCKQSYTLRTFGGGTKVEIKR
3 | 0.286 | 0.00342 | 1.2e+07 |  |  |  |  |  |  |  | humanized 16B5 antibody, version H1L2 (antibody, V domains shown) VH: QVQLVQSGSELKKPGASVKVSCKASGYTFTYHGMDWVRQAPGQGLEWMGWINTYSGVPTYADDFKGRFVFSLDTSVSTAYLQISSLKAEDTAVYFCARRRDFTMDFWGQGTTVTVSS VL: NIVLTQSPDSLAVSLGERATINCKSSQSLLNSRTRKNYLAWFQQKPGQSPKLLIYWASTRESGVPDRFSGSGSGTDFTLTISSLQAEDVAVYYCKQSYTLRTFGGGTKVEIKR
4 |  |  |  | binds | binds | binds | binds | binds | no binding (tested: 0.2 µg/mL) | no binding (tested: 0.2 µg/mL) | murine monoclonal anti-tau antibody 16B5 (antibody, V domains shown, Mouse monoclonal antibody; the isotype control used alongside it is IgG1; also called 16B5 monoclonal antibody; pan antibody 16B5) VH: QIQLVQSGPELKKPGETVKISCKASGYPFTYHGMDWVKQAPWGGLEWMGWINTYSGVPTYADDFKGRFAFSLETSVGTAYLQINNLKNEDTATYFCARRRDFTMDFWGQGTSVTVSS VL: NIVLSQSPSSLAVSPGEKVTMSCKSSQSLLNSRTRKNYLAWFQQKPGQSPKLLIYWASTRESGVPDRFTGSGSGTDFTLTISSVQAEDLAVYYCKQSYTLRTFGGGTNLEIKR
